Assay results: the Immune Epitope Database (IEDB)

Experiments:
HLA-A*02:06 = test: IEDB peptide-MHC binding, purified MHC/competitive/radioactivity; filed as Kd, often an IC50 or EC50 that approximates it; ≥ and ≤ were set here for values at or beyond the usual limits of such assays; conditions: source organism: Dengue virus 3 Singapore/8120/1995
HLA-A*23:01 = test: as above; conditions: source organism: Dengue virus 3 Singapore/8120/1995
HLA-A*24:02 = test: as above; conditions: source organism: Dengue virus 3 Singapore/8120/1995
HLA-A*26:01 [1] = test: as above; conditions: source organism: Dengue virus 3 Singapore/8120/1995
HLA-A*32:01 = test: as above
HLA-B*35:01 = test: as above; conditions: source organism: Dengue virus 3 Singapore/8120/1995
HLA-B*58:01 = test: as above
HLA-A*01:01 = test: IEDB peptide-MHC binding, purified MHC/competitive/fluorescence; filed as Kd, often an IC50 or EC50 that approximates it; ≥ and ≤ were set here for values at or beyond the usual limits of such assays
HLA-A*03:01 [2] = test: IEDB peptide-MHC binding, purified MHC/competitive/fluorescence; ≥ and ≤ were set here for values at or beyond the usual limits of such assays; conditions: source organism: Zaire ebolavirus
HLA-A*11:01 = test: as above
HLA-B*57:01 [3] = test: IEDB peptide-MHC binding, purified MHC/competitive/radioactivity; filed as Kd, often an IC50 or EC50 that approximates it; ≥ and ≤ were set here for values at or beyond the usual limits of such assays
HLA-A*02:03 = test: IEDB peptide-MHC binding, purified MHC/direct/fluorescence; filed as Kd, often an IC50 or EC50 that approximates it; ≥ and ≤ were set here for values at or beyond the usual limits of such assays; conditions: source organism: Ebola virus Yambio0403
HLA-A*02:11 [4] = test: as above; conditions: source organism: Ebola virus Yambio0403
HLA-A*02:12 [5] = test: as above; conditions: source organism: Ebola virus Yambio0403
HLA-A*02:16 = test: as above; conditions: source organism: Ebola virus Yambio0403
HLA-A*02:19 = test: as above; conditions: source organism: Ebola virus Yambio0403
HLA-A*03:01 [6] = test: as above; conditions: source organism: Ebola virus Yambio0403
HLA-A*24:03 = test: as above; conditions: source organism: Zaire ebolavirus
HLA-A*29:02 = test: as above; conditions: source organism: Ebola virus Yambio0403
HLA-A*68:02 [7] = test: as above; conditions: source organism: Ebola virus Yambio0403
HLA-A*02:01 = test: IEDB peptide-MHC binding, purified MHC/competitive/fluorescence; filed as Kd, often an IC50 or EC50 that approximates it; ≥ and ≤ were set here for values at or beyond the usual limits of such assays; conditions: source organism: Zaire ebolavirus
HLA-A*26:01 [8] = test: as above
HLA-A*69:01 = test: as above; conditions: source organism: Zaire ebolavirus
HLA-B*15:01 [9] = test: as above
HLA-B*15:17 = test: as above; conditions: source organism: Zaire ebolavirus
HLA-B*18:01 = test: as above
HLA-B*27:03 = test: as above
HLA-B*39:01 = test: as above
HLA-B*46:01 = test: as above
HLA-B*51:01 [10] = test: as above
HLA-B*57:01 [11] = test: as above
HLA-A*68:02 [12] = test: as above
HLA-B*07:02 = test: IEDB peptide-MHC binding, purified MHC/direct/fluorescence; filed as Kd, often an IC50 or EC50 that approximates it; ≥ and ≤ were set here for values at or beyond the usual limits of such assays; conditions: source organism: Vibrio parahaemolyticus
HLA-B*15:01 [13] = test: as above; conditions: source organism: Vibrio parahaemolyticus RIMD 2210633
HLA-B*51:01 [14] = test: as above
HLA-B*53:01 = test: IEDB peptide-MHC binding, purified MHC/competitive/radioactivity; filed as Kd, often an IC50 or EC50 that approximates it; ≥ and ≤ were set here for values at or beyond the usual limits of such assays
HLA-A*02:11 [15] = test: IEDB peptide-MHC binding, purified MHC/competitive/fluorescence; filed as Kd, often an IC50 or EC50 that approximates it; ≥ and ≤ were set here for values at or beyond the usual limits of such assays; conditions: source organism: Coxiella burnetii 'MSU Goat Q177'
HLA-A*02:12 [16] = test: as above; conditions: source organism: Coxiella burnetii 'MSU Goat Q177'
HLA-A*03:01 [17] = test: as above
HLA-A*68:02 [18] = test: IEDB peptide-MHC binding, purified MHC/competitive/radioactivity; filed as Kd, often an IC50 or EC50 that approximates it; ≥ and ≤ were set here for values at or beyond the usual limits of such assays; conditions: source organism: Dengue virus 2 Jamaica/1409/1983
HLA-C*15:02 = test: IEDB peptide-MHC binding, purified MHC/direct/fluorescence; filed as Kd, often an IC50 or EC50 that approximates it; ≥ and ≤ were set here for values at or beyond the usual limits of such assays; conditions: source organism: West Nile virus
HLA-B*08:01 = test: IEDB peptide-MHC binding, purified MHC/competitive/radioactivity; filed as Kd, often an IC50 or EC50 that approximates it; ≥ and ≤ were set here for values at or beyond the usual limits of such assays; conditions: source organism: Dengue virus 4 Philippines/H241/1956
HLA-B*51:01 [19] = test: as above; conditions: source organism: Dengue virus 4 Philippines/H241/1956
[20] = source organism: Dengue virus 3 Singapore/8120/1995
[21] = source organism: Zaire ebolavirus
[22] = source organism: Dengue virus 1 Singapore/S275/1990
[23] = source organism: Dengue virus 2 Jamaica/1409/1983
[24] = source organism: Dengue virus 4 Philippines/H241/1956
[25] = source organism: Escherichia coli 536
[26] = source organism: Dengue virus 1 Brazil/97-11/1997
[27] = source organism: Coxiella burnetii 'MSU Goat Q177'
[28] = source organism: West Nile virus
[29] = source organism: Salmonella enterica subsp. enterica serovar Typhi
[30] = source organism: Escherichia coli str. K-12 substr. MG1655

MIAGVLFTF
Kd (HLA-A*02:06): 22.5 nM
Kd (HLA-A*23:01): 26 nM
Kd (HLA-A*24:02): 50.4 nM
Kd (HLA-A*26:01 [1]): 1230 nM
Kd (HLA-A*32:01; [20]): 1.88 nM
Kd (HLA-B*35:01): 4.73 nM
Kd (HLA-B*58:01; [20]): 20.2 nM

WMSNGTWNY
Kd (HLA-A*01:01; source organism: Human immunodeficiency virus 1): 8.9 nM

RSTKGGQQK
IC50 (HLA-A*03:01 [2]): 5.63 µM
IC50 (HLA-A*11:01; [21]): 1.81 µM

WMADVPLQW
Kd (HLA-B*58:01; [20]): 0.528 nM

TTFSLHYAW
Kd (HLA-A*32:01; [22]): 1.33 nM
Kd (HLA-B*57:01 [3]; [22]): 1.42 nM
Kd (HLA-B*58:01; [22]): 1.59 nM

HTWTEQYKF
Kd (HLA-A*32:01; [23]): 151 nM
Kd (HLA-B*57:01 [3]; [23]): 2.37 nM

SWHHTSDDF
Kd (HLA-A*02:03): ≥ 20 µM
Kd (HLA-A*02:11 [4]): ≥ 20 µM
Kd (HLA-A*02:12 [5]): ≥ 20 µM
Kd (HLA-A*02:16): ≥ 20 µM
Kd (HLA-A*02:19): ≥ 20 µM
Kd (HLA-A*03:01 [6]): ≥ 20 µM
Kd (HLA-A*24:03): 18.7 nM
Kd (HLA-A*29:02): ≥ 20 µM
Kd (HLA-A*68:02 [7]): ≥ 20 µM
Kd (HLA-A*02:01): ≥ 20 µM
Kd (HLA-A*26:01 [8]; [21]): ≥ 20 µM
Kd (HLA-A*69:01): ≥ 20 µM
Kd (HLA-B*15:01 [9]; [21]): ≥ 20000 nM
Kd (HLA-B*15:17): ≥ 20 µM
Kd (HLA-B*18:01; [21]): ≥ 20 µM
Kd (HLA-B*27:03; [21]): ≥ 20 µM
Kd (HLA-B*39:01; [21]): ≥ 20 µM
Kd (HLA-B*46:01; [21]): ≥ 20 µM
Kd (HLA-B*51:01 [10]; [21]): ≥ 20 µM
Kd (HLA-B*57:01 [11]; [21]): ≥ 20 µM

PVYRDHSEK
IC50 (HLA-A*03:01 [2]): 7.62 µM
IC50 (HLA-A*11:01; [21]): 7.12 µM

ERSWNTGFDW
Kd (HLA-B*58:01; [24]): 683 nM

FYMASTWGA
Kd (HLA-A*68:02 [12]; source organism: Entamoeba dispar SAW760): 83.1 nM

EPATQTFDM
Kd (HLA-B*07:02): 122 nM
Kd (HLA-B*15:01 [13]): ≥ 20 µM
Kd (HLA-B*51:01 [14]; source organism: Vibrio parahaemolyticus): ≥ 20 µM

ETKKNLTRK
IC50 (HLA-A*03:01 [2]): 49.6 µM
IC50 (HLA-A*11:01; [21]): 14.1 µM

ISRNTVKRY
Kd (HLA-A*01:01; [25]): ≥ 20000 nM
Kd (HLA-B*15:01 [9]; [25]): 284 nM

GASTSQETW
Kd (HLA-B*53:01; [26]): 623 nM
Kd (HLA-B*57:01 [3]; [26]): 10.2 nM
Kd (HLA-B*58:01; [26]): 2.93 nM

KTSIGLLCVM
Kd (HLA-B*57:01 [3]; [22]): 11.4 nM

SAIVLEFFMM
Kd (HLA-B*58:01; source organism: Dengue virus 3 Martinique/1243/1999): 198 nM

YYLIKYLHV
Kd (HLA-A*02:11 [15]): 71.5 nM
Kd (HLA-A*02:12 [16]): 1170 nM
Kd (HLA-A*03:01 [17]; [27]): ≥ 20000 nM
Kd (HLA-A*26:01 [8]; [27]): ≥ 20 µM
Kd (HLA-B*15:01 [9]; [27]): ≥ 20000 nM
Kd (HLA-B*18:01; [27]): ≥ 20 µM
Kd (HLA-B*27:03; [27]): ≥ 20 µM
Kd (HLA-B*39:01; [27]): ≥ 20 µM
Kd (HLA-B*46:01; [27]): ≥ 20 µM
Kd (HLA-B*51:01 [10]; [27]): ≥ 20 µM
Kd (HLA-B*57:01 [11]; [27]): ≥ 20 µM

RPAADGKTV
Kd (HLA-B*51:01 [14]; [28]): ≥ 20 µM

GTTEVNGLY
Kd (HLA-A*01:01; [29]): 15.3 nM
Kd (HLA-A*03:01 [17]; [29]): 2160 nM

RAKGSRAIW
Kd (HLA-B*57:01 [3]; [24]): 172 nM
Kd (HLA-B*58:01; [24]): 27.1 nM

EAIRQIHAQ
Kd (HLA-A*68:02 [12]; source organism: Escherichia coli HS): 809 nM

SATRLENIMW
Kd (HLA-B*57:01 [3]; [26]): 11.7 nM
Kd (HLA-B*58:01; [26]): 69.7 nM

ESSPNPTIEA
Kd (HLA-A*68:02 [18]): 52.3 nM
Kd (HLA-B*57:01 [3]; [23]): 2090 nM

GGRAHRMAL
Kd (HLA-B*51:01 [14]; [28]): ≥ 20 µM
Kd (HLA-C*15:02): ≥ 20 µM

LNTIQFMHE
IC50 (HLA-A*11:01; source organism: Vaccinia virus WR): ≥ 147 µM

ELACAVPFY
Kd (HLA-A*01:01; [30]): ≥ 20000 nM
Kd (HLA-B*15:01 [9]; [30]): 226 nM

MAMTTVLSI
Kd (HLA-B*08:01): 16.3 nM
Kd (HLA-B*51:01 [19]): 36.3 nM
Kd (HLA-B*53:01; [24]): 2.34 nM
Kd (HLA-B*58:01; [24]): 18.9 nM

KTWGKAKIF
Kd (HLA-A*32:01; [24]): 60.3 nM
Kd (HLA-B*57:01 [3]; [24]): 36.3 nM
